{"source": "paper PMC4585561", "target": "VSD from KvAP (residues -12 to 136)", "assay": "ITC; 350 uM VSTx1 titrated into 36 uM VSD in the cell, 25 °C, 10 mM PIPES-NaOH pH 6.5, 4 mM DM; single-site model", "data": [{"substance": "VSTx1 (from UniProt P60980 30-63) (peptide)", "values": [{"measurement": "Kd", "value": 1500, "unit": "nM"}, {"measurement": "dH", "value": -4.5, "unit": "kcal/mol"}, {"measurement": "stoichiometry N", "value": 0.97}]}]}
